B1: BBSome complex member BBS4 (Homo sapiens), Q96RK4 (parent)
chain: MAEERVATRTQFPVSTESQKPRQKKAPEFPILEKQNWLIHLHYIRKDYEACKAVIKEQLQETQGLCEYAIYVQALIFRLEGNIQESLELFQTCAVLSPQSADNLKQVARSLFLLGKHKAAIEVYNEAAKLNQKDWEISHNLGVCYIYLKQFNKAQDQLHNALNLNRHDLTYIMLGKIHLLEGDLDKAIEVYKKAVEFSPENTELLTTLGLLYLQLGIYQKAFEHLGNALTYDPTNYKAILAAGSMMQTHGDFDVALTKYRVVACAVPESPPLWNNIGMCFFGKKKYVAAISCLKRANYLAPFDWKILYNLGLVHLTMQQYASAFHFLSAAINFQPKMGELYMLLAVALTNLEDIENAKRAYAEAVHLDKCNPLVNLNYAVLLYNQGEKKNALAQYQEMEKKVSLLKDNSSLEFDSEMVEMAQKLGAALQVGEALVWTKPVKDPKSKHQTTSTSKPASFQQPLGSNQALGQAMSSAAAYRTLPSGAGGTSQFTKPPSLPLEPEPAVESSPTETSEQIREK
partner: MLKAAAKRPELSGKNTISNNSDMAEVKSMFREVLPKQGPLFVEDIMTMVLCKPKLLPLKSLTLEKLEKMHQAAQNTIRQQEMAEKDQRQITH

Variants of: B1
Details: with bbip1_human BBIP1, A8MTZ0

effect of a mutation on the interaction | Variant
with no effect | MAEERVATRTQFPVSTESQKPRQKKAPEFPILEKQNWLIHLHYIRKDYEACKAVIKEQLQETQGLCEYAIYVQALIFRLEGNIQESLELFQTCAVLSPQSADNLKQVARSLFLLGKHKAAIEVYNEAAKLNQKDWEISHNLGVCYIYLKQFNKAQDQLHNALNLNRHDLTYIMLGKIHLLEGDLDKAIEVYKKAVEFSPENTELLTTLGLLYLQLGIYQKAFEHLGNALTYDPTNYKAILAAGSMMQTHGDFDVALTKYRVVACAVPESPPLWNNIGMCFFGKKKYVAAISCLKRANYLAPFDWKILYNLGLVHLTMQQYASAFHFLSAAINFQPKMGELYMLLAVALTNLEDIENAKRAYAEAVHLDKCNPLVNLNYAVLLANQGEKKNALAQYQEMEKKVSLLKDNSSLEFDSEMVEMAQKLGAALQVGEALVWTKPVKDPKSKHQTTSTSKPASFQQPLGSNQALGQAMSSAAAYRTLPSGAGGTSQFTKPPSLPLEPEPAVESSPTETSEQIREK [Y383A]
disrupting interaction strength | MAEERVATRTQFPVSTESQKPRQKKAPEFPILEKQNWLIHLHYIRKDYEACKAVIKEQLQETQGLCEYAIYVQALIFRLEGNIQESLELFQTCAVLSPQSADNLKQVARSLFLLGKHKAAIEVYNEAAKLNQKDWEISHNLGVCYIYLKQFNKAQDQLHNALNLNRHDLTYIMLGKIHLLEGDLDKAIEVYKKAVEFSPENTELLTTLGLLYLQLGIYQKAFEHLGNALTYDPTNYKAILAAGSMMQTHGDFDVALTKYRVVACAVPESPPLWNNIGMCFFGKKKYVAAISCLKRANYLAPFDWKILYNLGLVHLTMQQYASAFHFLSAAINFQPKMGELYMLLAVALTNLEDIENAKRAYAEAVHLDKCNPLVNLNYAVLPYNQGEKKNALAQYQEMEKKVSLLKDNSSLEFDSEMVEMAQKLGAALQVGEALVWTKPVKDPKSKHQTTSTSKPASFQQPLGSNQALGQAMSSAAAYRTLPSGAGGTSQFTKPPSLPLEPEPAVESSPTETSEQIREK [L382P]
with no effect | MAEERVATRTQFPVSTESQKPRQKKAPEFPILEKQNWLIHLHYIRKDYEACKAVIKEQLQETQGLCEYAIYVQALIFRLEGNIQESLELFQTCAVLSPQSADNLKQVARSLFLLGKHKAAIEVYNEAAKLNQKDWEISHNLGVCYIYLKQFNKAQDQLHNALNLNRHDLTYIMLGKIHLLEGDLDKAIEVYKKAVEFSPENTELLTTLGLLYLQLGIYQKAFEHLGNALTYDPTNYKAILAAGSMMQTHGDFDVALTKYRVVACAVPESPPLWNNIGMCFFGKKKYVAAISCLKRANYLAPFDWKILYNLGLVHLTMQQYASAFHFLSAAINFQPKMGELYMLLAVALTNLEDIENAKRAYAEAVHLDKCNPLVNLNYAVLAYNQGEKKNALAQYQEMEKKVSLLKDNSSLEFDSEMVEMAQKLGAALQVGEALVWTKPVKDPKSKHQTTSTSKPASFQQPLGSNQALGQAMSSAAAYRTLPSGAGGTSQFTKPPSLPLEPEPAVESSPTETSEQIREK [L382A]
with no effect | MAEERVATRTQFPVSTESQKPRQKKAPEFPILEKQNWLIHLHYIRKDYEACKAVIKEQLQETQGLCEYAIYVQALIFRLEGNIQESLELFQTCAVLSPQSADNLKQVARSLFLLGKHKAAIEVYNEAAKLNQKDWEISHNLGVCYIYLKQFNKAQDQLHNALNLNRHDLTYIMLGKIHLLEGDLDKAIEVYKKAVEFSPENTELLTTLGLLYLQLGIYQKAFEHLGNALTYDPTNYKAILAAGSMMQTHGDFDVALTKYRVVACAVPESPPLWNNIGMCFFGKKKYVAAISCLKRANYLAPFDWKILYNLGLVHLTMQQYASAFHFLSAAINFQPKMGELYMLLAVALTNLEDIENAKRAYAEAVHLDKCNPLVNLNYAVELYNQGEKKNALAQYQEMEKKVSLLKDNSSLEFDSEMVEMAQKLGAALQVGEALVWTKPVKDPKSKHQTTSTSKPASFQQPLGSNQALGQAMSSAAAYRTLPSGAGGTSQFTKPPSLPLEPEPAVESSPTETSEQIREK [L381E]
with no effect | MAEERVATRTQFPVSTESQKPRQKKAPEFPILEKQNWLIHLHYIRKDYEACKAVIKEQLQETQGLCEYAIYVQALIFRLEGNIQESLELFQTCAVLSPQSADNLKQVARSLFLLGKHKAAIEVYNEAAKLNQKDWEISHNLGVCYIYLKQFNKAQDQLHNALNLNRHDLTYIMLGKIHLLEGDLDKAIEVYKKAVEFSPENTELLTTLGLLYLQLGIYQKAFEHLGNALTYDPTNYKAILAAGSMMQTHGDFDVALTKYRVVACAVPESPPLWNNIGMCFFGKKKYVAAISCLKRANYLAPFDWKILYNLGLVHLTMQQYASAFHFLSAAINFQPKMGELYMLLAVALTNLEDIENAKRAYAEAVHLDKCNPLVNLNYAVKLYNQGEKKNALAQYQEMEKKVSLLKDNSSLEFDSEMVEMAQKLGAALQVGEALVWTKPVKDPKSKHQTTSTSKPASFQQPLGSNQALGQAMSSAAAYRTLPSGAGGTSQFTKPPSLPLEPEPAVESSPTETSEQIREK [L381K]

The next lines start with the variant.

Variant | effect of a mutation on the interaction
MAEERVATRTQFPVSTESQKPRQKKAPEFPILEKQNWLIHLHYIRKDYEACKAVIKEQLQETQGLCEYAIYVQALIFRLEGNIQESLELFQTCAVLSPQSADNLKQVARSLFLLGKHKAAIEVYNEAAKLNQKDWEISHNLGVCYIYLKQFNKAQDQLHNALNLNRHDLTYIMLGKIHLLEGDLDKAIEVYKKAVEFSPENTELLTTLGLLYLQLGIYQKAFEHLGNALTYDPTNYKAILAAGSMMQTHGDFDVALTKYRVVACAVPESPPLWNNIGMCFFGKKKYVAAISCLKRANYLAPFDWKILYNLGLVHLTMQQYASAFHFLSAAINFQPKMGELYMLLAVALTNLEDIENAKRAYAEAVHLDKCNPLVNLNYAELLYNQGEKKNALAQYQEMEKKVSLLKDNSSLEFDSEMVEMAQKLGAALQVGEALVWTKPVKDPKSKHQTTSTSKPASFQQPLGSNQALGQAMSSAAAYRTLPSGAGGTSQFTKPPSLPLEPEPAVESSPTETSEQIREK [V380E] | with no effect
MAEERVATRTQFPVSTESQKPRQKKAPEFPILEKQNWLIHLHYIRKDYEACKAVIKEQLQETQGLCEYAIYVQALIFRLEGNIQESLELFQTCAVLSPQSADNLKQVARSLFLLGKHKAAIEVYNEAAKLNQKDWEISHNLGVCYIYLKQFNKAQDQLHNALNLNRHDLTYIMLGKIHLLEGDLDKAIEVYKKAVEFSPENTELLTTLGLLYLQLGIYQKAFEHLGNALTYDPTNYKAILAAGSMMQTHGDFDVALTKYRVVACAVPESPPLWNNIGMCFFGKKKYVAAISCLKRANYLAPFDWKILYNLGLVHLTMQQYASAFHFLSAAINFQPKMGELYMLLAVALTNLEDIENAKRAYAEAVHLDKCNPLVNLNYAKLLYNQGEKKNALAQYQEMEKKVSLLKDNSSLEFDSEMVEMAQKLGAALQVGEALVWTKPVKDPKSKHQTTSTSKPASFQQPLGSNQALGQAMSSAAAYRTLPSGAGGTSQFTKPPSLPLEPEPAVESSPTETSEQIREK [V380K] | with no effect
MAEERVATRTQFPVSTESQKPRQKKAPEFPILEKQNWLIHLHYIRKDYEACKAVIKEQLQETQGLCEYAIYVQALIFRLEGNIQESLELFQTCAVLSPQSADNLKQVARSLFLLGKHKAAIEVYNEAAKLNQKDWEISHNLGVCYIYLKQFNKAQDQLHNALNLNRHDLTYIMLGKIHLLEGDLDKAIEVYKKAVEFSPENTELLTTLGLLYLQLGIYQKAFEHLGNALTYDPTNYKAILAAGSMMQTHGDFDVALTKYRVVACAVPESPPLWNNIGMCFFGKKKYVAAISCLKRANYLAPFDWKILYNLGLVHLTMQQYASAFHFLSAAINFQPKMGELYMLLAVALTNLEDIENAKRAYAEAVHLDKCNPLVNLNYAVLLENQGEKKNALAQYQEMEKKVSLLKDNSSLEFDSEMVEMAQKLGAALQVGEALVWTKPVKDPKSKHQTTSTSKPASFQQPLGSNQALGQAMSSAAAYRTLPSGAGGTSQFTKPPSLPLEPEPAVESSPTETSEQIREK [Y383E] | with no effect
MAEERVATRTQFPVSTESQKPRQKKAPEFPILEKQNWLIHLHYIRKDYEACKAVIKEQLQETQGLCEYAIYVQALIFRLEGNIQESLELFQTCAVLSPQSADNLKQVARSLFLLGKHKAAIEVYNEAAKLNQKDWEISHNLGVCYIYLKQFNKAQDQLHNALNLNRHDLTYIMLGKIHLLEGDLDKAIEVYKKAVEFSPENTELLTTLGLLYLQLGIYQKAFEHLGNALTYDPTNYKAILAAGSMMQTHGDFDVALTKYRVVACAVPESPPLWNNIGMCFFGKKKYVAAISCLKRANYLAPFDWKILYNLGLVHLTMQQYASAFHFLSAAINFQPKMGELYMLLAVALTNLEDIENAKRAYAEAVHLDKCNPLVNLNYAVLEYNQGEKKNALAQYQEMEKKVSLLKDNSSLEFDSEMVEMAQKLGAALQVGEALVWTKPVKDPKSKHQTTSTSKPASFQQPLGSNQALGQAMSSAAAYRTLPSGAGGTSQFTKPPSLPLEPEPAVESSPTETSEQIREK [L382E] | with no effect
MAEERVATRTQFPVSTESQKPRQKKAPEFPILEKQNWLIHLHYIRKDYEACKAVIKEQLQETQGLCEYAIYVQALIFRLEGNIQESLELFQTCAVLSPQSADNLKQVARSLFLLGKHKAAIEVYNEAAKLNQKDWEISHNLGVCYIYLKQFNKAQDQLHNALNLNRHDLTYIMLGKIHLLEGDLDKAIEVYKKAVEFSPENTELLTTLGLLYLQLGIYQKAFEHLGNALTYDPTNYKAILAAGSMMQTHGDFDVALTKYRVVACAVPESPPLWNNIGMCFFGKKKYVAAISCLKRANYLAPFDWKILYNLGLVHLTMQQYASAFHFLSAAINFQPKMGELYMLLAVALTNLEDIENAKRAYAEAVHLDKCNPLVNLNYAVLKYNQGEKKNALAQYQEMEKKVSLLKDNSSLEFDSEMVEMAQKLGAALQVGEALVWTKPVKDPKSKHQTTSTSKPASFQQPLGSNQALGQAMSSAAAYRTLPSGAGGTSQFTKPPSLPLEPEPAVESSPTETSEQIREK [L382K] | with no effect
MAEERVATRTQFPVSTESQKPRQKKAPEFPILEKQNWLIHLHYIRKDYEACKAVIKEQLQETQGLCEYAIYVQALIFRLEGNIQESLELFQTCAVLSPQSADNLKQVARSLFLLGKHKAAIEVYNEAAKLNQKDWEISHNLGVCYIYLKQFNKAQDQLHNALNLNRHDLTYIMLGKIHLLEGDLDKAIEVYKKAVEFSPENTELLTTLGLLYLQLGIYQKAFEHLGNALTYDPTNYKAILAAGSMMQTHGDFDVALTKYRVVACAVPESPPLWNNIGMCFFGKKKYVAAISCLKRANYLAPFDWKILYNLGLVHLTMQQYASAFHFLSAAINFQPKMGELYMLLAVALTNLEDIENAKRAYAEAVHLDKCNPLVNLNYAVPLYNQGEKKNALAQYQEMEKKVSLLKDNSSLEFDSEMVEMAQKLGAALQVGEALVWTKPVKDPKSKHQTTSTSKPASFQQPLGSNQALGQAMSSAAAYRTLPSGAGGTSQFTKPPSLPLEPEPAVESSPTETSEQIREK [L381P] | disrupting interaction strength
MAEERVATRTQFPVSTESQKPRQKKAPEFPILEKQNWLIHLHYIRKDYEACKAVIKEQLQETQGLCEYAIYVQALIFRLEGNIQESLELFQTCAVLSPQSADNLKQVARSLFLLGKHKAAIEVYNEAAKLNQKDWEISHNLGVCYIYLKQFNKAQDQLHNALNLNRHDLTYIMLGKIHLLEGDLDKAIEVYKKAVEFSPENTELLTTLGLLYLQLGIYQKAFEHLGNALTYDPTNYKAILAAGSMMQTHGDFDVALTKYRVVACAVPESPPLWNNIGMCFFGKKKYVAAISCLKRANYLAPFDWKILYNLGLVHLTMQQYASAFHFLSAAINFQPKMGELYMLLAVALTNLEDIENAKRAYAEAVHLDKCNPLVNLNYAVALYNQGEKKNALAQYQEMEKKVSLLKDNSSLEFDSEMVEMAQKLGAALQVGEALVWTKPVKDPKSKHQTTSTSKPASFQQPLGSNQALGQAMSSAAAYRTLPSGAGGTSQFTKPPSLPLEPEPAVESSPTETSEQIREK [L381A] | with no effect

Reference: IntAct's records for PubMed 29039417
